Patent publication US20250049939A1, “NOVEL FLT3 ANTIBODIES AND ANTIBODY-DRUG-CONJUGATES BASED THEREON, THERAPEUTIC METHODS AND USES THEREOF IN COMBINATION WITH TYROSINE KINASE INHIBITORS” (TUBULIS GmbH, priority 2021, published 2025)

T1: Ba/F3 cells expressing human wildtype FLT3 (Homo sapiens, UniProt P36888)
T1 construct: expressed in transfected cells; host or cells: Ba/F3 cells, retrovirally transduced with MSCV-IRES-YFP (pMIY) vector
T1 sequence (P36888 27-993): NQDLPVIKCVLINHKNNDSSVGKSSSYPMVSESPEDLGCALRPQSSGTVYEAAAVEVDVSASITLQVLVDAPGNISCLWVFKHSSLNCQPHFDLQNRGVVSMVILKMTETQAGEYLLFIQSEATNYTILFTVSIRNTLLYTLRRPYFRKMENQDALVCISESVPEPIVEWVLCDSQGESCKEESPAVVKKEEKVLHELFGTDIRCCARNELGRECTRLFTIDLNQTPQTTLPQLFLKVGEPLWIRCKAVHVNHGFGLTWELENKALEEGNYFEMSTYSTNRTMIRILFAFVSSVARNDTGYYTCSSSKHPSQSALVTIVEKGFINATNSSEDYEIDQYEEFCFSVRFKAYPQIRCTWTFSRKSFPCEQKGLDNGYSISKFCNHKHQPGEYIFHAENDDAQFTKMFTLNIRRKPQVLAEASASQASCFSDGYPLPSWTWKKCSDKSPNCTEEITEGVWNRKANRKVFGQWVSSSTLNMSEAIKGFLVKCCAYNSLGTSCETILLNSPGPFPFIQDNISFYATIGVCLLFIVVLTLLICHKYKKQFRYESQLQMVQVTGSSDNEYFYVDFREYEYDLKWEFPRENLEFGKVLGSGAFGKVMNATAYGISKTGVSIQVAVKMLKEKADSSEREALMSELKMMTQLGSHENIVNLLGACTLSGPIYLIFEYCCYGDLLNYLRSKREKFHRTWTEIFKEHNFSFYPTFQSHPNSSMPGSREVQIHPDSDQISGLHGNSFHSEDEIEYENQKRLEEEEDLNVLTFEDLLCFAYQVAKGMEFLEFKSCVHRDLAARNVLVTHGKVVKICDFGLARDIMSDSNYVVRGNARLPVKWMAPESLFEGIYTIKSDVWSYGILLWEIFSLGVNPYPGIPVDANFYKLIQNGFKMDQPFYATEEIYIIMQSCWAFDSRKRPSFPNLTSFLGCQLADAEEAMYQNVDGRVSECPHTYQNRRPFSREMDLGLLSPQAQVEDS

T2: recombinant human FLT3 (Homo sapiens, UniProt P36888)
T2 construct: purchased Sino Biological 10445-H08H
T2 sequence (P36888 27-541 limits assumed): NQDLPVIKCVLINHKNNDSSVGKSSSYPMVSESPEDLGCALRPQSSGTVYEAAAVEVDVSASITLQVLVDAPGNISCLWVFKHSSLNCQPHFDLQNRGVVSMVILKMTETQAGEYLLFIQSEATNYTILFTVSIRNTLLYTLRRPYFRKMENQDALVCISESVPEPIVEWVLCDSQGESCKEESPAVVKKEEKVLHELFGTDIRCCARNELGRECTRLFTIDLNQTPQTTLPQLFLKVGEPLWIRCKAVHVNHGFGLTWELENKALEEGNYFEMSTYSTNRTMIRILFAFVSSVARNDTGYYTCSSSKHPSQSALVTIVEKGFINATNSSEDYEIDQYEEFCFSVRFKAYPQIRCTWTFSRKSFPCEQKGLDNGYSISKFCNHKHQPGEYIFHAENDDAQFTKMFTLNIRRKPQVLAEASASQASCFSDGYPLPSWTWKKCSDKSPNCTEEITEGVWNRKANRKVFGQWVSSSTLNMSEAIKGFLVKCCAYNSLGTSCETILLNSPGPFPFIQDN

B1: 2F12: chimeric anti-FLT3 antibody from rat; VH SEQ ID NO: 7, VL SEQ ID NO: 8 (antibody, V domains shown)
VH: EVKLEESGGGLVQPGGSMKLSCVASGFTFSNYWMNWVRQSPEKGLEWVAQIRLKSDNYATHYAESVKGRFTISRDDSKDSVYLQMNNLRAEDTGIYYCAVSLARSDYWGQGTTLTVSSA
VL: DVVMTQSPPSLSASLGDKVTITCQASQNINKYIAWYQQKPGKAPRLLIRYTSTLESGTPSRFSGSGSGRDFSFSISNVESEDIASYYCLQYVNLPRTFGGGTKLELKR
modifications: Clone 2F12, heavy chain variable region without a signal seqeunce; Clone 2F12, light chain variable region without a signal seqeunce
B2: 19H5: chimeric anti-FLT3 antibody from rat; VH SEQ ID NO: 17, VL SEQ ID NO: 18 (antibody, V domains shown)
VH: MVQPSQTLSLTCTVSGFSLTSYNVNWVRQPPGKGLEWIGAMWRGGGTDYNPALKSRLSISRDTSKSQVFLKMNRLQTEDTAIYFCTRGFGDYWGQGVMVTVSSA
VL: DVQMTQSPSSMSASLGDRVTFTCQASQDIGNNLIYFQQKPGKSPRRMICCATNLAHGVPSRFSGSRSGSDYSLTLVSLESEDVADYHCLQYEHYPRTFGGGTKLELKR
modifications: Clone 19H5, heavy chain variable region without a signal seqeunce; Clone 19H5, light chain variable region without a signal seqeunce

Columns and labels:
[1] = test system: MOLM-13 (FLT3 positive) cells; assay: Temperature induced internalization in MOLM-13, flow cytometry; assay type: cell-based, human; conditions: 30 min at 37° C. compared to 4° C.
Experimental: For antibody binding studies, cells were stained on ice with primary mouse, rat or human anti-FLT3 antibodies (in house) and secondary antibody Goat F(ab′)2 Anti-Human Ig-PE (2012-09), Goat Anti-Mouse IgG (H+L)-PE (1032-09) or Goat Anti-Rat IgG (H+L)-PE (3052-09) purchased from Southern Biotech. For internalization experiments, cells incubated with anti-FLT3 antibodies were washed and incubated for 30 min at 4° C. or 37° C. followed by staining with secondary antibody.

[2] = target: T1, Ba/F3 cells expressing human wildtype FLT3; assay: Temperature induced internalization in Ba/F3-FLT3, flow cytometry; assay type: cell-based; conditions: 30 min at 37° C. compared to 4° C.
From the text: FIG. 1: Evaluation of epitope specificity and internalization capability of anti-FLT3 monoclonal antibodies. (A) Affinity of seven anti-FLT3 monoclonal antibody (mab) clones to recombinant human FLT3 measured in enzyme-linked immunosorbent assay (ELISA) normalized to the binding of the antibodies to BSA control. […] (B) Schematic FLT3 receptor. Black arrows indicate common mutations and blue arrows indicate the three identified epitopes of seven anti-FLT3 antibodies analyzed in linear epitope mapping by PEPperPRINT. Figure was created with BioRender.com. (C) Binding and temperature induced internalization of anti-FLT3 antibodies in Ba/F3 cells expressing human wildtype FLT3. Internalization was induced by incubation for 30 min at 37° C. (grey) compared to 4° C. (black). Remaining surface-bound antibody was detected in flow cytometry. MFI was normalized to control human IgG1 binding. MFI=mean fluorescence intensity. […] (D) Cell surface binding of 20D9 mab or control human IgG1 antibody to Ba/F3 cells stably expressing pMIY (Ba/F3-pMIY) empty vector (ev), human wildtype (hFLT3 wt) or ITD mutant human FLT3 (hFLT3ITD) was measured in flow cytometry. Mean±s.d. of n=3. (E) Temperature induced internalization of 4B12 mab in MOLM-13 (FLT3 positive) cells after 30 min incubation at 37° C. compared to 4° C. and HL-60 (FLT3 negative) after 37° C. incubation assessed in immunofluorescence staining. Red=FLT3 staining by 4B12, Green=membrane staining by Vybrant DiO, Blue=nuclear staining by DAPI. Scale bar 5 μm. Representative pictures are shown. (F) Cell surface binding of 20D9 mab or control hIgG1 antibody to Ba/F3-pMIY ev, hFLT3 wt, murine (mFLT3 wt) or cynomolgues monkey FLT3 (cynoFLT3 wt) was measured in flow cytometry. Mean±s.d. of n=3. (G) Cell surface binding of 20D9 mab or control hIgG1 antibody to Ba/F3-PMIY ev, hFLT3 wt or epitope mutant FLT3 (hFLT3/S50P/P54R) measured in flow cytometry. Mean±s.d. of n=3. (H) Cell surface binding of 20D9 mab or control hIgG1 antibody to Ba/F3-PMIY ev, hFLT3 wt or human CD64 (hCD64) measured in flow cytometry. Mean±s.d. of n=3. […]

[3] = target: T2, recombinant human FLT3; assay: ELISA affinity to recombinant human FLT3; assay type: binding; conditions: chimeric Ab clones
From the text: FIG. 1: Evaluation of epitope specificity and internalization capability of anti-FLT3 monoclonal antibodies. (A) Affinity of seven anti-FLT3 monoclonal antibody (mab) clones to recombinant human FLT3 measured in enzyme-linked immunosorbent assay (ELISA) normalized to the binding of the antibodies to BSA control. […] (B) Schematic FLT3 receptor. Black arrows indicate common mutations and blue arrows indicate the three identified epitopes of seven anti-FLT3 antibodies analyzed in linear epitope mapping by PEPperPRINT. Figure was created with BioRender.com. (C) Binding and temperature induced internalization of anti-FLT3 antibodies in Ba/F3 cells expressing human wildtype FLT3. Internalization was induced by incubation for 30 min at 37° C. (grey) compared to 4° C. (black). Remaining surface-bound antibody was detected in flow cytometry. MFI was normalized to control human IgG1 binding. MFI=mean fluorescence intensity. […] (D) Cell surface binding of 20D9 mab or control human IgG1 antibody to Ba/F3 cells stably expressing pMIY (Ba/F3-pMIY) empty vector (ev), human wildtype (hFLT3 wt) or ITD mutant human FLT3 (hFLT3ITD) was measured in flow cytometry. Mean±s.d. of n=3. (E) Temperature induced internalization of 4B12 mab in MOLM-13 (FLT3 positive) cells after 30 min incubation at 37° C. compared to 4° C. and HL-60 (FLT3 negative) after 37° C. incubation assessed in immunofluorescence staining. Red=FLT3 staining by 4B12, Green=membrane staining by Vybrant DiO, Blue=nuclear staining by DAPI. Scale bar 5 μm. Representative pictures are shown. (F) Cell surface binding of 20D9 mab or control hIgG1 antibody to Ba/F3-pMIY ev, hFLT3 wt, murine (mFLT3 wt) or cynomolgues monkey FLT3 (cynoFLT3 wt) was measured in flow cytometry. Mean±s.d. of n=3. (G) Cell surface binding of 20D9 mab or control hIgG1 antibody to Ba/F3-PMIY ev, hFLT3 wt or epitope mutant FLT3 (hFLT3/S50P/P54R) measured in flow cytometry. Mean±s.d. of n=3. (H) Cell surface binding of 20D9 mab or control hIgG1 antibody to Ba/F3-PMIY ev, hFLT3 wt or human CD64 (hCD64) measured in flow cytometry. Mean±s.d. of n=3.
Maxisorp plates were coated with human recombinant FLT3 protein (10445-H08H, Sino Biological). Chimeric (20D9) or humanized anti-FLT3 monoclonal antibodies (in house) and secondary alkaline phosphatase conjugated rabbit anti-human IgG antibody (309-055-008, Jackson Immunoresearch) were used. For detection, Attophos Fluorescent Substrate System (S1000, Promega) was applied. The fluorescence was read with excitation of 405 nm and emission at 500-550 nm. The calculation of the dissociation constant KD was performed using GraphPad Prism version 9.4.0.

| Molecule | Internalization in MOLM-13 [1] [%] | Internalization in Ba/F3-FLT3 [2] [%] | Affinity Kd [3] [µg/mL] |
| --- | --- | --- | --- |
| B1 | 12 | 26 | 3.981 |
| B2 | – | – | 0.1339 |
